Test results taken from patent US20230235029A1 (INTEGRATED BIOTHERAPEUTICS, published 2023).

Biological target: T1, Marburg virus Musoke GP on rVSV pseudotype (VSV-MARV Musoke GP) (Marburg virus, Musoke strain, UniProt P35253 19-681)
T1 sequence: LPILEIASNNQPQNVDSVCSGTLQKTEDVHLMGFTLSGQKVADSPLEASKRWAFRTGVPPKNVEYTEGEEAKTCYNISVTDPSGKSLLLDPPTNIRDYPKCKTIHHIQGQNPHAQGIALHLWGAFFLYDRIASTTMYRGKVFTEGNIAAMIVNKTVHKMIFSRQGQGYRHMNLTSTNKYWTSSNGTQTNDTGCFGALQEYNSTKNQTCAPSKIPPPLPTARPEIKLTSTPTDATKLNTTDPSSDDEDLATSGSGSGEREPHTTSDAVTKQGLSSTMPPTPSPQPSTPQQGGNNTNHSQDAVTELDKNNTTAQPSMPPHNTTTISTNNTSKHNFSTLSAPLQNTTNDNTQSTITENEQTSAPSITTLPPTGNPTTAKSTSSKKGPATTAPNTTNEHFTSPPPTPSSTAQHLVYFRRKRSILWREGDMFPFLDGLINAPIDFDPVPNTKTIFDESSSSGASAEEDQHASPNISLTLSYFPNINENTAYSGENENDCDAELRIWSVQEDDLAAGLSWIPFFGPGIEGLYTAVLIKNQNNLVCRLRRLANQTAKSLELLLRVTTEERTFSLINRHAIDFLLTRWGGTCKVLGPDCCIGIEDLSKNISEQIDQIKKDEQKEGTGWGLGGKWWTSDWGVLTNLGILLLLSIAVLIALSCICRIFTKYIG
Assay: cell-based or functional assay

B1: R217 (antibody, V domains shown)
VH: QVQLQESGPGLVKPSETLSLTCAVSGASISSNWWNWIRQPPGRGLEWLGEIYGYSGSTSYNPYLKSRVTISKDASRNQISLKLNAVTAADTAVYYCARDPLNQDAFDFWGQGLRVTVSS
VL: QSALTQPPSVSGSPGQSVTISCTGTSSDIGGYDYVSWYQHHPGKAPKLMIYDVNERPAGVSDRFSGSKSGNTASLTISGLQAEDEADYFCSSYAGRKTLLFGGGTRLTVL
**Q.** With B1 as the binder, how does the “EC50 (read off the curve)” value read?
**A.** ~0.3 µg/mL
